T1: gg-hs-hs IL-1RAP
T1 construct: chicken/human IL-1RAP chimera; also called IL-1RAP-ECD(ggD1(S139-P246)-hsD2(V132-V233)-hsD3(V234-E359))-Avi-His; gg-hs-hs-IL-1RAP-ECD-avi-his
T1 single chain: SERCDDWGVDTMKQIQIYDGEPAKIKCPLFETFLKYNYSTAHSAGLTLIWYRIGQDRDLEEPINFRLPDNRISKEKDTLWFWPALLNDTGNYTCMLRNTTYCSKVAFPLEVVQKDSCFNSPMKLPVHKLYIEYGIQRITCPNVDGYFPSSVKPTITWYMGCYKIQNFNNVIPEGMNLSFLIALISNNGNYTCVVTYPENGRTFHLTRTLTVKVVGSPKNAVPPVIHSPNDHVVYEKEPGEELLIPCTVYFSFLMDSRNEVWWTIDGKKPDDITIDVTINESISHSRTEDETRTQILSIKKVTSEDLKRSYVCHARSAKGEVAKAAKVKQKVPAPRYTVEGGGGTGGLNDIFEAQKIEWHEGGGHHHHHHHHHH

T2: Recombinant mouse IL-1RAP Fc fusion protein (Sino Biologicals, catalog no. 52657-M02H) (mouse, UniProt Q61730 21-350)
T2 construct: Bought; not shown: Fc part of the bought fusion protein
T2 sequence: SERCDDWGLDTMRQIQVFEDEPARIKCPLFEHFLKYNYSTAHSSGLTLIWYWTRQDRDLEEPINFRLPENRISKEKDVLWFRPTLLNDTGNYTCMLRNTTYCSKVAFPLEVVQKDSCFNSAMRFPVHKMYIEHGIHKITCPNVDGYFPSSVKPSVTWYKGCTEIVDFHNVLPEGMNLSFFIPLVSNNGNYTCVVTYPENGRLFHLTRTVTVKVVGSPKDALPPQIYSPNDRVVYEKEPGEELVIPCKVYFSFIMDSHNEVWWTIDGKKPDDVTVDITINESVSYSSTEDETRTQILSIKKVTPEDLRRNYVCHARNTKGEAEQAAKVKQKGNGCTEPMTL

T3: Recombinant human IL-1RAP Fc fusion protein (Acrobiosystems, catalog no. ILP-H5256) (human, UniProt Q9NPH3 21-359, limits assumed)
T3 construct: Bought; not shown: Fc part of the bought fusion protein
T3 sequence: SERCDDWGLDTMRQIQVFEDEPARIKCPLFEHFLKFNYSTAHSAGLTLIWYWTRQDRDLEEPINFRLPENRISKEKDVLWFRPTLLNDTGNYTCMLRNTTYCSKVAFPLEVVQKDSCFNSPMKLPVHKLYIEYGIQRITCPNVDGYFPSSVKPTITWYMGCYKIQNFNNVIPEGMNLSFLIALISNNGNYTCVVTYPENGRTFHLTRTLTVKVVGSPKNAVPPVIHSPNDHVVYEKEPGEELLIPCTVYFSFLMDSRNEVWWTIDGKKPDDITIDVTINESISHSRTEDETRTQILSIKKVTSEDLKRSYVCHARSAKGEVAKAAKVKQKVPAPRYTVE

T4: Recombinant cynomolgus monkey IL-1RAP-ECD(S21-E359)-avi-his protein (cynomolgus monkey, UniProt P59822 21-359 (rhesus entry))
T4 construct: also called cyno IL-1RAP-ECD-Avi-His; recombinant cynomolgus monkey IL-1RAP-avi-his protein
T4 sequence: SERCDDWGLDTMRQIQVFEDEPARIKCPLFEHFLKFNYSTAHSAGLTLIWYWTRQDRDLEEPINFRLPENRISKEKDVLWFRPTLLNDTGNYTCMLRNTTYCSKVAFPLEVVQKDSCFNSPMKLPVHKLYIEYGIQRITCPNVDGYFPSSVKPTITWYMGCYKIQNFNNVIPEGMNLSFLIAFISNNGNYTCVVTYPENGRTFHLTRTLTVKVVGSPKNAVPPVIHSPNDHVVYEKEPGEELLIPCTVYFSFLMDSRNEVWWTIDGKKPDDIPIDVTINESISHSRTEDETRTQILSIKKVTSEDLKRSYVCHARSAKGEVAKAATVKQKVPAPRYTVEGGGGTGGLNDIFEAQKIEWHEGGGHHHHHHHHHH


Legend:
[1] = molecular target: T1, gg-hs-hs IL-1RAP; experiment: SPR, IgG1 LALA captured on anti-human IgG Fc CM5 chip, chimera injected at 50 nM
Experimental: Human-chicken IL-1RAP chimeras were injected over immobilized anti-IL-1RAP IgG1 LALA at 50 nM in HBS-EP+ buffer followed by a dissociation in HBS-EP+ buffer. “hs” stands for a human domain and “gg” stands for a chicken domain. Human-chicken chimeras are then described by their respective human or chicken domains in successive order, e.g. hs-gg-gg IL-1RAP stands for IL-1RAP with human domain 1, chicken domain 2 and chicken domain 3. Plots show data expressed as number of resonance units (abbreviated RU; Y axis) vs. time (X axis).
Domain of IL-1RAP targeted by IgG1 LALA clones was identified by SPR binding assay. Around 150 RU of IgG1 LALA was immobilized on the fc2 of a Series S CM5 sensor chip previously coated with anti-human IgG Fc (BIACORE™, GE […]®, catalog no. BR100839) using a commercial amine coupling kit (BIACORE™, GE […]®, catalog no. BR100050). Human IL-1RAP-avi-his, chicken IL-1RAP-avi-his, chimeric protein comprising chicken domain 1 of IL-RAP fused to human domain 2 and 3 of IL-1RAP (gg-hs-hs-IL-1RAP-ECD-avi-his) and chimeric protein comprising chicken domain 1 and 2 of IL-1RAP fused to human domain 3 of IL-1RAP (gg-gg-hs-IL-1RAP-avi-his) were injected individually at 50 nM in HBS-EP+ for 3 min over fc1 and fc2 (fc1 being used as reference), followed by dissociation in HBS-EP+ buffer for 5 min. […]

[2] = molecular target: T2, Recombinant mouse IL-1RAP Fc fusion …; experiment: SPR, mouse IL-1RAP-Fc captured, Fab as analyte
Experimental: (§1) Surface plasmon resonance (SPR) was used to measure the binding affinities of the Fab fragments for human, cynomolgus monkey and/or mouse IL-1RAP. Affinities were measured on a BIACORE™ T200 instrument (BIACORE™, GE […]®) at 25° C. and analyzed with the BIACORE™ T200 Evaluation Software (v3.1). Measurements were performed on Series S CM5 sensor chips (BIACORE™ T200, BIACORE™, GE […]®, catalog no. BR100530) coupled with anti-human IgG Fc (BIACORE™, GE […]®, catalog no. BR100839) using a commercial amine coupling kit (BIACORE™, GE […]®, catalog no. BR100050) or on Series S BiotinCAPture chips (BIACORE™, GE […]®, catalog no. 28920234). SPR measurements were performed with commercially available recombinant human IL-1RAP Fc fusion protein (Acrobiosystems, catalog no. ILP-H5256) and recombinant mouse IL-1RAP Fc fusion protein (Sino Biologicals, catalog no. 52657-M02H) or with biotinylated recombinant cynomolgus monkey IL-1RAP-avi-his protein produced in-house (SEQ ID NO. 2).
(§2) The affinities to human, cynomolgus monkey and mouse IL-1RAP were assessed by immobilizing IL-1RAP and using Fab fragments as analyte. Around 100 RU of human or mouse IL-1RAP Fc fusion protein were captured on fc2 of a Series S CM5 sensor chip coupled with anti-human IgG Fc and around 150 RU of biotinylated cynomolgus monkey IL-1RAP protein were captured on fc2 of a Series S BiotinCAPture chip. Fab fragments were injected in single cycle kinetic at different concentrations ranging from 7.8 to 500 nM, in HBS-EP+ buffer (BIACORE™, GE […]®, catalog no. BR100669) at a flow rate of 30 μl/min for 3 min on fc1 and fc2 (fc1 being used as reference). Dissociation was monitored for 5 min. After each cycle, the surface was regenerated with 60 μl of regeneration solution provided with anti-human IgG Fc capture kit (BIACORE™, GE […]®, catalog no. BR100839) or BiotinCAPture kit (BIACORE™, GE […]®, catalog no. 28920234) respectively. Experimental data were processed using the 1:1 Langmuir kinetic fitting model. Measurements included zero-concentration samples for referencing. Chi², U- and residual values were used to evaluate the quality of a fit between the experimental data and individual binding models.

[3] = molecular target: T3, Recombinant human IL-1RAP Fc fusion …; experiment: SPR, human IL-1RAP-Fc captured, Fab as analyte, 1:1 fit
Experimental: as §1, §2

[4] = molecular target: T4, Recombinant cynomolgus monkey …; experiment: SPR, biotinylated cyno IL-1RAP-avi-his captured, Fab as analyte
Experimental: as §1
(§3) The affinities to human, cynomolgus monkey and mouse IL-1RAP were assessed by immobilizing IL-1RAP and using Fab fragments as analyte. […] Dissociation was monitored for 5 min. […]

[5] = molecular target: T4, Recombinant cynomolgus monkey …; experiment: SPR, Fab as analyte
Experimental: as §1, §3

[6] = molecular target: T2, Recombinant mouse IL-1RAP Fc fusion …; experiment: SPR, mouse IL-1RAP-Fc captured, Fab as analyte, 1:1 fit
Experimental: as §1, §3

[7] = molecular target: T4, Recombinant cynomolgus monkey …; experiment: SPR, biotinylated cyno IL-1RAP-avi-his captured, Fab as analyte, 1:1 fit
Experimental: as §1, §2

binding result [1]	Kd [3] [nM]	binding result [4]	Kd [6] [nM]	Binder	also measured
–	311	no binding (tested: 7.8 to 500 nM Fab)	–	Anti-IL-1RAP-UCP02-B5-Fab (Fab, V domains shown) VH: QVQLVQSGAEVKKPGSSVKVSCKASGGYFSAYIISWVRQAPGQGLEWMGGIVPQYGYATYAQKFQGRVTITADESTSTAYMELSSLRSEDTAVYYCARGRSTTYYGFAYWGQGTLVTVSS VL: not shown	binding result [2]: no binding (tested: 7.8 to 500 nM Fab)
binds	–	–	–	anti-IL-1RAP-C3 IgG1 LALA (antibody, V domains shown, Human IgG1 with L234A/L235A (EU)) VH: EVQLLESGGGLVQPGGSLRLSCAASGFTFRDYAMGWVRQAPGKGLEWVSAISYDGEGTLYADSVKGRFTISRDNSKNTLYLQMNSLRAEDTAVYYCARFRYYTAFDYWGQGTLVTVSS VL: not shown	–

Continued, binder first:

Binder	binding result [1]	Kd [3] [nM]	binding result [4]	Kd [6] [nM]	also measured
anti-IL-1RAP-C8 IgG1 LALA (antibody, V domains shown, Human IgG1 with L234A/L235A (EU)) VH: QVQLVQSGAEVKKPGSSVKVSCKASGGQFSEYAIQWVRQAPGQGLEWMGYIIPLHGQVDYAQKFQGRVTITADESTSTAYMELSSLRSEDTAVYYCARGQTLYDSGRQFDIWGQGTLVTVSS VL: not shown	binds	–	–	–	–
Anti-IL-1RAP-UCP02-C3-Fab (Fab, V domains shown, also called anti-IL-1RAP-C3; anti-IL-1RAP-C3 Fab) VH: EVQLLESGGGLVQPGGSLRLSCAASGFTFRDYAMGWVRQAPGKGLEWVSAISYDGEGTLYADSVKGRFTISRDNSKNTLYLQMNSLRAEDTAVYYCARFRYYTAFDYWGQGTLVTVSS VL: not shown	–	2.8	–	0.63	fold lower affinity than to human IL-1RAP [5]: ~40 fold; Kd [7]: 110 nM
Anti-IL-1RAP-UCP04-C1-Fab (Fab, V domains shown) VH: EVQLLESGGGLVQPGGSLRLSCAASGFTFSAYTMSWVRQAPGKGLEWVSAISYEGDGTLYADSVKGRFTISRDNSKNTLYLQMNSLRAEDTAVYYCARSLYWSGFDYWGQGTLVTVSS VL: not shown	–	16	no binding (tested: 7.8 to 500 nM Fab)	3.54	–

Source: patent publication US20240327530A1 (ICHNOS SCIENCES, published 2024)
